Where no end group is shown, it is not given here. The star is where a group is joined. Biotin = O=C1N[C@H]2[C@H](CS[C@H]2CCCCC(=O)*)N1

Experimental findings from patent US20250076314A1 (NORDIC BIOSCIENCE A S, published 2025) are described below.

To fix the notation:
B1: Selection peptide PIQWNAPQPS (peptide)
peptide: PIQWNAPQPS
notes: Synthetic peptide from Genscript
B2: FN-ANA monoclonal antibody (mAb raised against the FN-ANA neoepitope sequence …) (antibody, mouse IgG1, kappa, V domains shown)
VH: QVQLQQSGAELVRPGASVKLSCKALGYTLTDYEMHWVKQTPVHGLEWIGAIHPGRGAAAYNQKFKDKATLTADKSSSTAYMELSSLTSEDSAVYYCTRSEEYGNYEDAMDYWGQGTSVTVSS
VL: DVVMTQTPLSLPVSLGDQASISCRSSQSLVHSNGNTYLHWFLQKPGQSPKLLIYKVSNRFSGVPDRFSGSGSGTDFTLKISRVEAEDLGVYFCSQSTHVPYTFGGGTKLEIKR
modifications: antibody labeled with HRP (site not stated)
notes: Mouse IgG1/kappa from a hybridoma, purified and HRP-labelled for the assay; also called FN-ANA mAb; FN-ANA antibody

Assay [1] has as its target B2. As to the kind of experiment: competitive chemiluminescent ELISA, ten independent runs: selection peptide competes with plate-bound coating peptide …-K-biotin for HRP-labelled mAb; 20 h at 4 C. The procedure:
The final FN-ANA assay parameters were determined empirically by several optimizing experiments where various reagents, concentrations, incubation time and temperature were investigated in addition to testing reactivity to selection and deselection peptides (Table 1) and human sera. The final FN-ANA competitive ELISA procedure was conducted with chemiluminescence detection and determined as follows: 100 μL of 3 ng/ml coating peptide ([…]-K-biotin (SEQ ID NO: 5)) in coating buffer (50 mM tris-buffered saline (TBS) with 1% (w/v) bovine serum albumin, 0.1% (w/v) Tween-20, and 0.36% (v/v) Bronidox (BTB), 4 g/L NaCl, 0.20 g/L KCl, pH 8.0) was added to each well in a 96-well streptavidin-coated microtiter white plate (cat. No. 655995, Greiner Bio-one, Taufkirchen, Germany), whereafter it was incubated for 30 minutes at 20° C. with 300 RPM orbital shaking. After incubation, the plate was emptied and washed 5 times in washing buffer (consisting of 25 mM Tris, 3.0 g/L NaCl, 0.1% (w/v) Tween-20, pH 7.2). […] Following a washing step, 100 µL/well of chemiluminescence substrate was added, and the plate was incubated for a total of 3 minutes in darkness with 1 minute of 300 RPM orbital shaking before detection with luminescence on a SpectraMax i3x microplate reader (Molecular Devices, Sunnyvale CA, USA) at 1 second integration time at all wavelengths as microplate reader settings. […]
A general note: An ELISA detects its analyte on a solid surface through an enzyme-linked reagent.

For assay [2], the target named is T1, Coating peptide PIQWNAPQPS-K-Biotin (human).
T1 construct: also called biotin-labelled peptide
T1 peptide: PIQWNAPQPSK(Biotin)
The experiment in a line: competitive ELISA, colorimetric detection.

Assay [3] has as its target B1. The experiment in a line: competitive ELISA, colorimetric detection.
Assay [4] has as its target T2, Elongated peptide HPIQWNAPQPS
T2 construct: also called deselection peptide
T2 peptide: HPIQWNAPQPS
As to the kind of experiment: competitive ELISA, colorimetric detection (OD 450 nm), two-fold diluted peptides. On the procedure: (§1) No. 655995, Greiner Bio-one, Taufkirchen, Germany), whereafter it was incubated for 30 minutes at 20° C. with 300 RPM orbital shaking. After incubation, the plate was emptied and washed 5 times in washing buffer (consisting of 25 mM Tris, 3.0 g/L NaCl, 0.1% (w/v) Tween-20, pH 7.2). A 10-point calibration curve with 2-fold dilution was prepared from a start concentration of 200 ng/ml selection peptide ([…] (SEQ ID NO: 1)) in incubation buffer (50 mM TBS-BTB, 4.0 g/L NaCl, 0.20 g/L KCl, 5% Liquid II (cat. No. 11941836001, Roche), pH 8.0). 20 μL/well of standards, assay controls, and serum samples were added to appropriate wells in double determinations followed by the addition of 100 μL/well of 6 ng/ml of HRP-labelled mAb in incubation buffer, whereafter plates were incubated at 4° C. for 20 hours with 300 RPM orbital shaking. The following day, chemiluminescence substrate (cat. No. 11582950001, Roche Diagnostics) was prepared according to manufacturer's instructions and mixed by rotation in the dark for 20 minutes at room temperature prior to plate analysis. Following a washing step, 100 µL/well of chemiluminescence substrate was added, and the plate was incubated for a total of 3 minutes in darkness with 1 minute of 300 RPM orbital shaking before detection with luminescence on a SpectraMax i3x microplate reader (Molecular Devices, Sunnyvale CA, USA) at 1 second integration time at all wavelengths as microplate reader settings. […]
(§2) Antibody specificity was evaluated using the synthetic peptides and determined as a percentage of signal inhibition of two-fold diluted selection and deselection peptides (elongated, truncated, and nonsense) in addition to a non-sense coating (peptide details are listed in Table 1) using a colorimetric detection method with 96-well streptavidin-coated microtiter plate (cat. No. 11940279, Roche Diagnostics, Hvidovre, Denmark) and using the above procedure with the following exceptions: Instead of adding chemiluminescent substrate, the colorimetric substrate 3,3′,5,5′-tetramethylbenzidine One (cat. […]

For assay [5], the target named is T3, Nonsense peptide LHDSNPYPRR
T3 construct: also called nonsense selection peptide; deselection peptide
T3 peptide: LHDSNPYPRR
Described as above. On the procedure:
as §1, §2

Assay [6] has as its target T4, Truncated peptide IQWNAPQPS
T4 construct: also called deselection peptide
T4 peptide: IQWNAPQPS
The description is as above. The procedure: as §1, §2

Assay [7] deals with T5, Nonsense coating peptide LHDSNPYPRR-K-Biotin.
T5 peptide: LHDSNPYPRRK(Biotin)
As to the kind of experiment: ELISA with the nonsense coating peptide on a streptavidin plate, colorimetric detection (OD 450 nm).

One may read the IC50 as the concentration needed to halve the response being measured. A low value points to higher potency. As for B1, the IC50 in assay [1] came out at 8.86 ng/mL.

For B2, the binding result in assay [2] was “binds”; in assay [3], “binds”; in assay [4] it was “no binding”; in assay [5], “no binding”; in assay [6] it was “no binding”; in assay [7] it was “no binding”.
